According to US7569660 (UNIVERSITY OF CHICAGO, dated 2009):

Target: the molecule itself

B1: NM R2E2 repeat expansion variant (other)
chain: MSDSNQGNNQQNYQQYSQNGNQQQGNNRYQGYQAYNAQAQPAGGYYQNYQGYSGYQQGGYQQYNPQGGYQQYNPQGGYQQYNPDAGYQQQYNPQGGYQQYNPQGGYQQQFNPQGGRGNYKNFNYNNNLQGYQAGFQPQSQGMSLNDFQKQQKQAAPKPKKTLKLVSSSGIKLANATKKVGTKPAESDKKEEEKSAETKEPTKEPTKVEEPVKKEEKPVQTEEKTEEKSELPKVEDLKISESTHNTNNANVTSADALIKEQEEEVDDEVVND
  rate of conversion to a β-sheet rich structure relative to wild-type NM: ~2 fold
